B1: NLV3 TCR beta chain (CDR3β only) (parent)
chain: ASSPTGGSPSPLH

In the assay the parent is B1. The experiment in a line: T-Switch: Jurkat TCRβ−/− cells expressing a CDR3 saturation-mutagenesis library, stained with two peptide-HLA-A*02:01 tetramers (original and novel peptide) plus anti-CD3, FACS-sorted into four gates, gDNA sequenced. The settings on record: tetramers 1 µg/mL, 30 min on ice, SP, DP and SW gates expanded about 10 days between rounds ('two to three rounds of selection' in the Methods), unresolved parent, parent is a CDR3 fragment, scale: fold enrichment, numbering: sequential-on-construct, sequence starts at 1.

[1] abbreviates: with both tetramers (double-negative gate, binds neither): HLA-A*02:01 with … and with …, gate DN: OPPOSITE: higher = more of the variant in the gate that binds neither peptide = LESS binding (or no expression; inferred). Fold enrichment of the CDR3 variant in one FACS gate of a two-tetram.
The mark [2] stands for this setting: with both tetramers (double-positive gate): HLA-A*02:01 with … and with …, gate DP: higher = more of the variant in the gate that binds both peptides. Fold enrichment of the CDR3 variant in one FACS gate of a two-tetramer stain. SP/DP/SW gates were expanded and re-sorted bef.

Regarding […] (CDR3 as printed); G6D derived by comparing it with the table's wild-type CDR3 ASSPTGGSPSPLH, the enrichment is, setting by setting: under setting [1], 0.99; under setting [2], 0.

With […] (CDR3 as printed); P9N derived by comparing it with the table's wild-type CDR3 ASSPTGGSPSPLH, the enrichment under setting [1] amounted to 1.65 and the enrichment under setting [2] stood at 0.

As for […] (CDR3 as printed); S2E derived by comparing it with the table's wild-type CDR3 ASSPTGGSPSPLH, the enrichment came to 0.993 under setting [1] and 0 under setting [2].

In the case of […] (CDR3 as printed); S10L derived by comparing it with the table's wild-type CDR3 ASSPTGGSPSPLH, the enrichment turned out to be 0.468 under setting [1] and 0 under setting [2].

On to […] (CDR3 as printed); S3F derived by comparing it with the table's wild-type CDR3 ASSPTGGSPSPLH, for which the enrichment stood at 0.989 under setting [1] and 0 under setting [2].

Regarding […] (CDR3 as printed); G7F derived by comparing it with the table's wild-type CDR3 ASSPTGGSPSPLH, the enrichment reads like this: under setting [1], 1.02; under setting [2], 0.

As for […] (CDR3 as printed); P4R derived by comparing it with the table's wild-type CDR3 ASSPTGGSPSPLH, the enrichment runs as follows: under setting [1], 0.618; under setting [2], 0.

As to […] (CDR3 as printed); H13G derived by comparing it with the table's wild-type CDR3 ASSPTGGSPSPLH, the enrichment is, setting by setting: under setting [1], 0.702; under setting [2], 0.

[…] (CDR3 as printed); H13W derived by comparing it with the table's wild-type CDR3 ASSPTGGSPSPLH: the enrichment by setting is: under setting [1], 0.345; under setting [2], 0.

Consider […] (CDR3 as printed); S10R derived by comparing it with the table's wild-type CDR3 ASSPTGGSPSPLH, for which the enrichment runs as follows: under setting [1], 1.17; under setting [2], 0.

As for […] (CDR3 as printed); G7A derived by comparing it with the table's wild-type CDR3 ASSPTGGSPSPLH, the enrichment under setting [1] is 0.658 and the enrichment under setting [2] stood at 0.

With […] (CDR3 as printed); G6Y derived by comparing it with the table's wild-type CDR3 ASSPTGGSPSPLH, the enrichment by setting is: under setting [1], 0.661; under setting [2], 0.

Turning to […] (CDR3 as printed); P11I derived by comparing it with the table's wild-type CDR3 ASSPTGGSPSPLH, the enrichment runs as follows: under setting [1], 1.19; under setting [2], 0.

Turning to […] (CDR3 as printed); T5N derived by comparing it with the table's wild-type CDR3 ASSPTGGSPSPLH, the enrichment runs as follows: under setting [1], 0.924; under setting [2], 0.

Consider […] (CDR3 as printed); S8L derived by comparing it with the table's wild-type CDR3 ASSPTGGSPSPLH, for which the enrichment reads like this: under setting [1], 1.58; under setting [2], 0.

Turning to […] (CDR3 as printed); S10Q derived by comparing it with the table's wild-type CDR3 ASSPTGGSPSPLH, the enrichment is, setting by setting: under setting [1], 0.571; under setting [2], 0.

[…] (CDR3 as printed); G6I derived by comparing it with the table's wild-type CDR3 ASSPTGGSPSPLH: the enrichment reads like this: under setting [1], 1.08; under setting [2], 0.

As to […] (CDR3 as printed); S10T derived by comparing it with the table's wild-type CDR3 ASSPTGGSPSPLH, the enrichment runs as follows: under setting [1], 1.08; under setting [2], 0.

Turning to […] (CDR3 as printed); P11T derived by comparing it with the table's wild-type CDR3 ASSPTGGSPSPLH, the enrichment by setting is: under setting [1], 1.19; under setting [2], 0.

For […] (CDR3 as printed); A1P derived by comparing it with the table's wild-type CDR3 ASSPTGGSPSPLH, the enrichment was determined as 1.02 under setting [1] and 0 under setting [2].

As for […] (CDR3 as printed); S3T derived by comparing it with the table's wild-type CDR3 ASSPTGGSPSPLH, the enrichment under setting [1] came out at 0.779 and the enrichment under setting [2] was 0.

As to […] (CDR3 as printed); P4Q derived by comparing it with the table's wild-type CDR3 ASSPTGGSPSPLH, the enrichment was found to be 1.2 under setting [1] and 0 under setting [2].

In the case of […] (CDR3 as printed); G6W derived by comparing it with the table's wild-type CDR3 ASSPTGGSPSPLH, the enrichment under setting [1] was determined as 1.44 and the enrichment under setting [2] is 0.

For the variant […] (CDR3 as printed); L12E derived by comparing it with the table's wild-type CDR3 ASSPTGGSPSPLH, the enrichment under setting [1] turned out to be 1.1 and the enrichment under setting [2] is 0.

Take […] (CDR3 as printed); A1R derived by comparing it with the table's wild-type CDR3 ASSPTGGSPSPLH: the enrichment under setting [1] amounted to 0.65 and the enrichment under setting [2] was 0.

For […] (CDR3 as printed); T5H derived by comparing it with the table's wild-type CDR3 ASSPTGGSPSPLH, the enrichment reads like this: under setting [1], 0.879; under setting [2], 0.

On to […] (CDR3 as printed); T5D derived by comparing it with the table's wild-type CDR3 ASSPTGGSPSPLH, for which the enrichment by setting is: under setting [1], 1.06; under setting [2], 0.

Take […] (CDR3 as printed); P4S derived by comparing it with the table's wild-type CDR3 ASSPTGGSPSPLH: the enrichment under setting [1] amounted to 0.973 and the enrichment under setting [2] turned out to be 0.

Regarding […] (CDR3 as printed); S2G derived by comparing it with the table's wild-type CDR3 ASSPTGGSPSPLH, the enrichment is 0.981 under setting [1] and 0 under setting [2].

In the case of […] (CDR3 as printed); P9V derived by comparing it with the table's wild-type CDR3 ASSPTGGSPSPLH, the enrichment was found to be 0.664 under setting [1] and 0 under setting [2].

With […] (CDR3 as printed); H13P derived by comparing it with the table's wild-type CDR3 ASSPTGGSPSPLH, the enrichment came to 1 under setting [1] and 0 under setting [2].

On to […] (CDR3 as printed); S3V derived by comparing it with the table's wild-type CDR3 ASSPTGGSPSPLH, for which the enrichment was 0.951 under setting [1] and 0 under setting [2].

For the variant […] (CDR3 as printed); S8W derived by comparing it with the table's wild-type CDR3 ASSPTGGSPSPLH, the enrichment under setting [1] is 0.85 and the enrichment under setting [2] is 0.

As for […] (CDR3 as printed); A1E derived by comparing it with the table's wild-type CDR3 ASSPTGGSPSPLH, the enrichment runs as follows: under setting [1], 1.07; under setting [2], 0.

Consider […] (CDR3 as printed); L12P derived by comparing it with the table's wild-type CDR3 ASSPTGGSPSPLH, for which the enrichment by setting is: under setting [1], 1.2; under setting [2], 0.

Take […] (CDR3 as printed); S10V derived by comparing it with the table's wild-type CDR3 ASSPTGGSPSPLH: the enrichment by setting is: under setting [1], 0.96; under setting [2], 0.

For […] (CDR3 as printed); G6M derived by comparing it with the table's wild-type CDR3 ASSPTGGSPSPLH, the enrichment under setting [1] came to 0.906 and the enrichment under setting [2] was 0.

[…] (CDR3 as printed); S3I derived by comparing it with the table's wild-type CDR3 ASSPTGGSPSPLH: the enrichment stood at 1.21 under setting [1] and 0 under setting [2].

For the variant […] (CDR3 as printed); P11K derived by comparing it with the table's wild-type CDR3 ASSPTGGSPSPLH, the enrichment under setting [1] amounted to 0.634 and the enrichment under setting [2] is 0.

Turning to […] (CDR3 as printed); S2Y derived by comparing it with the table's wild-type CDR3 ASSPTGGSPSPLH, the enrichment runs as follows: under setting [1], 0.769; under setting [2], 0.

Regarding […] (CDR3 as printed); L12R derived by comparing it with the table's wild-type CDR3 ASSPTGGSPSPLH, the enrichment is, setting by setting: under setting [1], 0.619; under setting [2], 0.

With […] (CDR3 as printed); P4G derived by comparing it with the table's wild-type CDR3 ASSPTGGSPSPLH, the enrichment was 0.753 under setting [1] and 0 under setting [2].

[…] (CDR3 as printed); P11Y derived by comparing it with the table's wild-type CDR3 ASSPTGGSPSPLH: the enrichment is, setting by setting: under setting [1], 0.787; under setting [2], 0.

For the variant […] (CDR3 as printed); G6P derived by comparing it with the table's wild-type CDR3 ASSPTGGSPSPLH, the enrichment runs as follows: under setting [1], 1.09; under setting [2], 0.

For the variant […] (CDR3 as printed); S8M derived by comparing it with the table's wild-type CDR3 ASSPTGGSPSPLH, the enrichment amounted to 1.29 under setting [1] and 0 under setting [2].

As to […] (CDR3 as printed); S2H derived by comparing it with the table's wild-type CDR3 ASSPTGGSPSPLH, the enrichment is, setting by setting: under setting [1], 0.777; under setting [2], 0.

As to […] (CDR3 as printed); H13C derived by comparing it with the table's wild-type CDR3 ASSPTGGSPSPLH, the enrichment came to 0.646 under setting [1] and 0 under setting [2].

Turning to […] (CDR3 as printed); P9E derived by comparing it with the table's wild-type CDR3 ASSPTGGSPSPLH, the enrichment under setting [1] stood at 0.929 and the enrichment under setting [2] turned out to be 0.

[…] (CDR3 as printed); S10M derived by comparing it with the table's wild-type CDR3 ASSPTGGSPSPLH: the enrichment runs as follows: under setting [1], 0.53; under setting [2], 0.

With […] (CDR3 as printed); S3G derived by comparing it with the table's wild-type CDR3 ASSPTGGSPSPLH, the enrichment runs as follows: under setting [1], 0.543; under setting [2], 0.

On to […] (CDR3 as printed); G7L derived by comparing it with the table's wild-type CDR3 ASSPTGGSPSPLH, for which the enrichment amounted to 1.32 under setting [1] and 0 under setting [2].

Take […] (CDR3 as printed); S2N derived by comparing it with the table's wild-type CDR3 ASSPTGGSPSPLH: the enrichment under setting [1] was 0.879 and the enrichment under setting [2] stood at 0.

For the variant […] (CDR3 as printed); H13M derived by comparing it with the table's wild-type CDR3 ASSPTGGSPSPLH, the enrichment runs as follows: under setting [1], 0.598; under setting [2], 0.

Take […] (CDR3 as printed); H13K derived by comparing it with the table's wild-type CDR3 ASSPTGGSPSPLH: the enrichment stood at 0.708 under setting [1] and 0 under setting [2].

Take […] (CDR3 as printed); P4Y derived by comparing it with the table's wild-type CDR3 ASSPTGGSPSPLH: the enrichment is 0.624 under setting [1] and 0 under setting [2].

Consider […] (CDR3 as printed); P9F derived by comparing it with the table's wild-type CDR3 ASSPTGGSPSPLH, for which the enrichment turned out to be 0.851 under setting [1] and 0 under setting [2].

Turning to […] (CDR3 as printed); P9S derived by comparing it with the table's wild-type CDR3 ASSPTGGSPSPLH, the enrichment by setting is: under setting [1], 0.771; under setting [2], 0.
